# PMC5440646, “T Cell Costimulation by CD6 Is Dependent on Bivalent Binding of a GADS/SLP-76 Complex” (Molecular and Cellular Biology, 2017)
# Where two headings read alike, the source gives them in different places.
# Tests used:
# GADS = GADS (UniProt O75791); assay: CD6 MAb immunoprecipitation, Western blot; settings: reference: wild-type CD6-EGFP; sites Y629
# SLP-76 = SLP-76 (UniProt Q13094); assay: CD6 MAb immunoprecipitation, Western blot; settings: reference: wild-type CD6-EGFP; sites Y662
# [1] = target: SLP-76 proline-rich motif (Homo sapiens) (UniProt Q13094); settings: cited from earlier work
# [2] = target: long CD6 peptide phosphorylated at Y629 (human); assay: SPR; biotinylated long CD6 peptides immobilised at ~50 response units on streptavidin-coated CM5 chips, BIAcore 3000; SH2 domains injected at 10 μl/min at 37°C; equilibrium binding, 1:1 Langmuir
# Sequence of long CD6 peptide phosphorylated at Y629 (human) (P30203 622-668): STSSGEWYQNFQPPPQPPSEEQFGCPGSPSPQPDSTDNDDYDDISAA
# [3] = target: long CD6 peptide phosphorylated at Y629 and Y662 (human); assay: as above
# Sequence of long CD6 peptide phosphorylated at Y629 and Y662 (human) (P30203 622-668): as above
# [4] = target: SLP-76 proline-rich motif (Homo sapiens) (UniProt Q13094); settings: cited from earlier work; remark: listed apart in the source
# [5] = target: long CD6 peptide phosphorylated at Y662 (human); assay: SPR; biotinylated long CD6 peptides immobilised at ~50 response units on streptavidin-coated CM5 chips, BIAcore 3000; SH2 domains injected at 10 μl/min at 37°C; equilibrium binding, 1:1 Langmuir
# Sequence of long CD6 peptide phosphorylated at Y662 (human) (P30203 622-668): as above
# Sequence of GRB2 C-terminal SH3 (P62993 156-215): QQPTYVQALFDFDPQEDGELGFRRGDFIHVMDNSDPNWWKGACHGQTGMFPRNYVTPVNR
# Sequence of GADS C-terminal SH3 (O75791 271-330): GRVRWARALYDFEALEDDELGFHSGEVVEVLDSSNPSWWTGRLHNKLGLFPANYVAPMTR
substance,measurement,setting,value
CD6 (from UniProt P30203) Y629F,binding against the reference,GADS,weaker
CD6 (from UniProt P30203) Y662F,binding against the reference,SLP-76,weaker
GADS C-terminal SH3 (from UniProt O75791),Kd,[1],200 nM
"GADS SH2 domain, His-tagged (from UniProt O75791 58-149) (domain or fragment)",Kd,[2],200 to 600 nM
same,Kd,[3],100 to 2000 nM
GRB2 C-terminal SH3 (from UniProt P62993),Kd,[4],10 µM
"SLP-76 SH2 domain, His-tagged (from UniProt Q13094 422-530) (domain or fragment)",Kd,[3],300 to 2000 nM
same,Kd,[5],300 to 2000 nM
